The experiment deals with HIV-1 CA carrying the A92E substitution (HIV-1). As to the kind of experiment: cryo-EM structure.

As usually defined, the stoichiometry N is a count of units in the complex or per binding partner. Substance “HIV-1 CA carrying the A92E substitution (natural protein)” registered a stoichiometry N of 6.
